# The nanobody polyreactivity screen of Harvey et al. (2022)
# Experiment: yeast display, Sf9 membrane polyspecificity reagent, FACS + sequencing; frameworks hold sequencing errors
# In short: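 Polyreactivity labels are assigned by the sorting gate from which each nanobody was recovered. The gates were low and high (top ~1%), set on anti-HA fluorescence for expression and streptavidin fluorescence for reagent binding. Before sorting, galactose-induced (36–48 hours) yeast display cells were stained for 1 hour at 4 °C with 10% biotinylated, detergent-solubilized Sf9 membrane reagent.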
row,Sequence,polyreactivity (PSR sort gate)
1,QVQLVESGGGLVQAGGSLRLSCAASGRIFRYYAMGWYRQAPGKERELVASINSGGSTYYADSVKGRFTISRDNAKNTVYLQLNSLKPEDTAVYYCAKRVGHSRHADNDYWGQGTQVTVSS,low polyreactivity
2,QVQLVESGGGLVQAGGSLRLSCAASGRIFRYYAMGWYRQAPGKERELVATISRSGGSTFYADSVKGRFTISRDNAKNTVYLQMKSLKPEDTAVYYCAADYYSYVVGRIYYWGQGTQVTVSS,high polyreactivity
3,QVQLVESGGGLVQAGGSLRLSCAASGRIFRYYAMGWYRQAPGKERELVAVISSRGGSTFYADSVKGRFTISRDNAKNTVYLQMNSLKPEDTAVYYCASRSLYVGYDYWGQGTQVTVSS,high polyreactivity
4,QVQLVESGGGLVQAGGSLRLSCAASGRIFRYYAMGWYRQATGKERELVATITASSGSTYYADSVKGRFTISRDNAKNTVYLQMNSLKPEDSAVYYCAAGFVYRPGSFIRFDYWGQGTQVTVSS,high polyreactivity
5,QVQLVESGGGLVQAGGSLRLSCAASGRIFRYYDMGWYRQAPGKEREFVAAITRSGAITYYADSVKGRFTISRDNAKNTVYLQMNSLKPEDTAVYYCAARYWAKFGYWGQGTQVTVSS,low polyreactivity
6,QVQLVESGGGLVQAGGSLRLSCAASGRIFRYYMGWYRQAPGKERELVAVISSGGRTKYADSVKGRFTISRDNAKNTVYLQMNSLKPEDTAVYYCAARYPREAAYGFDYWGQGTQVTVSS,high polyreactivity
7,QVQLVESGGGLVQAGGSLRLSCAASGRIFRYYTMGWYRQAHGKEREFVATITSSGGSTNYADSVKGRFTISRDNAKNSVYIQTNSLKPEDTAVYYCAKTSRAPWDGYYWGEGTQVTVSS,low polyreactivity
8,QVQLVESGGGLVQAGGSLRLSCAASGRIFRYYTMGWYRQAPGKERELVAAINSSCGSTYYADSVKGRFTISRDNAKNTVYLQMNSLIAEDTAVYYCNAVGYTGRYQFWRVWDVHGDYWGQGNQVTVSS,high polyreactivity
9,QVQLVESGGGLVQAGGSLRLSCAASGRIFRYYTMGWYRQAPGKERELVAAISWTGGRTYYADSVKGRFTISRDNAKNTVYLQMNSLKPEDTAVYYCAATNRYYIFDYWGQGTQVTVSS,high polyreactivity
10,QVQLVESGGGLVQAGGSLRLSCAASGRIFSANAMGWYRQAPGKERELVAISWTGGSTYYADSVKGRFTISRDNAKNTVYLQMNSLKPEDTAVYYCAKERYGKYFGSVDYWGQGTQVTVSS,low polyreactivity
11,QVQLVESGGGLVQAGGSLRLSCAASGRIFSAYAMGWYRPAPGKERELVAAISWSGGSTYYADSVKGRFTISRDNAKNTVYLQMNSLKPEDTAVYYCAADYFYTSWYQHDYWGQGTQVTVSS,low polyreactivity
12,QVQLVESGGGLVQAGGSLRLSCAASGRIFSDYAMGWYRQAPGKERELVAVISWDGTNTYYADSVKGRFTISRDNAKNTVYLQMNSLKPEDTAVYYCAATGTSYYSAYDYWGQGTQVTVSS,low polyreactivity
13,QVQLVESGGGLVQAGGSLRLSCAASGRIFSDYVMGWYRQAPGKERELVADITGGGSTYYADSVKGRFTISRDNAKNTVYLQMNSLKPEDTAVYYCAARVYSYWDRSQRYYYCGQGTQVTVSS,high polyreactivity
14,QVQLVESGGGLVQAGGSLRLSCAASGRIFSENAMGWYRQAPGKERELVAAISVSGGSTYYADSVKGRFTISRDNAKNTVYLQMNSLKPEDTAVYYCAAEYLAYYSGYDYWGQGTQVTVSS,high polyreactivity
15,QVQLVESGGGLVQAGGSLRLSCAASGRIFSFNARGWYRPAPGKETELVAGITYGGNTYYADSVKGRFTISRDNAKNTVYLQMNSLKPEDTAVYYCAADGVYDQNLYGFWGQGTQVTVSS,low polyreactivity
16,QVQLVESGGGLVQAGGSLRLSCAASGRIFSFNGMGWYRPAPGKERELVAAITSSGGRTYYADSVKGRFTISRDNAKNTVYLQMNSLIPEDTAVYYCAAELAWDYYWGQGTQVTVSS,low polyreactivity
17,QVQLVESGGGLVQAGGSLRLSCAASGRIFSFYAMGWYRQAPGKERELVATISDGGATTYYADSVKGRFTISRDNAKNTVYLQMNSLKPEDTAVYYCNARRESYYQRYRVDYWGQGTQVTVSS,low polyreactivity
18,QVQLVESGGGLVQAGGSLRLSCAASGRIFSFYAMGWYRQAPGKERELVATISKRAGSTYYADSVKGRFTISRDNAKNTVYLQMNSLKPEDTAVYYCAARKWYYASSRWRDYWGQGTQVTVSS,high polyreactivity
19,QVQLVESGGGLVQAGGSLRLSCAASGRIFSGYAMGWYRQAPGKERELVAAITSRSGSTYYADSVKGRFTISRDNAKNTVYLQMNSLKPEDTAVYYCAAEYVRFYWYTSDYWGQGTQVTVSS,low polyreactivity
20,QVQLVESGGGLVQAGGSLRLSCAASGRIFSGYAMGWYRQAPGKERELVAAIYGGGSTNYADSVKGRFTISRDNAKNTVYLQMNSLKPEDTAVYYCATQYWHYPYWLYKYDYWGQGTQVTVSS,low polyreactivity
21,QVQLVESGGGLVQAGGSLRLSCAASGRIFSGYTMGWYRQAPGKERELVAAIRVGGGRTYYADSVKGRFTISRDNSKNTVYLQMYSLKPEDTAVYYCAKLYIRHGYDYWGQGTQVTVSS,low polyreactivity
22,QVQLVESGGGLVQAGGSLRLSCAASGRIFSGYTMGWYRQAPGKERELVAAITRSGGSTYYADSVKGRFTISRDNAKNTVYLQMNSLKPEDTAVYYCNKVSYRRMDSWGQGTQVTVSS,high polyreactivity

row,Sequence,polyreactivity (PSR sort gate)
1,QVQLVESGGGLVQAGGSLRLSCAASGRIFSHYDLGWYRQAPGKEREVVAAISSGGITYYADSVKGRFTISRDNAKNTVYLQRNSLKPEDTAVYYCAAVRRRGTTYDYWGQGTQVTVSS,high polyreactivity
2,QVQLVESGGGLVQAGGSLRLSCAASGRIFSINAMGWYRQAPGKEREFVATISDRGSTTSYADSVKGRFTISGDNAKNTVDLQMNSLKPDDTAVYYCAARSYYRYDYWGQGTQVTVSS,high polyreactivity
3,QVQLVESGGGLVQAGGSLRLSCAASGRIFSINAMGWYRQAPGKERELVAAITSRGTSTYYADSVKGRFTISRDNAKNTVYLQMNSMKPEDTAVYYCAKKYVGGPWPRYFWGQGTQVTVSS,high polyreactivity
4,QVQLVESGGGLVQAGGSLRLSCAASGRIFSIYAMGWYRQAPGKERELVAAIRSRGGRTHYADSVKVRFTISRDNAKNTVYLQMNSLKPEDTAVYFCNAKYFSGDNYWGQGTQVTVSS,high polyreactivity
5,QVQLVESGGGLVQAGGSLRLSCAASGRIFSKNAMGWCRQAPGKERELVAGITSISGSTYYADSVKGRFTISRDNAKNTVYLQMNSLKPEDTAVYYCAARFPHRHYLLYTYDYWGQGTQVTVSS,low polyreactivity
6,QVQLVESGGGLVQAGGSLRLSCAASGRIFSKYAMGWYRQAPGKEREFVASISYRGGSTYYADSVKGRFTISRDNAKNTVYLQMNSLKPEDTAVYYCATRKYADRESDYWGQGTQVTVSS,high polyreactivity
7,QVQLVESGGGLVQAGGSLRLSCAASGRIFSKYAMGWYRQAPGKERELVAAISNGGSTNYADTVKGRFTISRDNAKNTVYLQMNSLKPEDTAVYYCAKQDRVLYGGYDSWGQGTQVTVSS,low polyreactivity
8,QVQLVESGGGLVQAGGSLRLSCAASGRIFSKYAMGWYRQAPGKERELVAAITSGGRTYYADSVKGRFTISRDNAKNTVYLQMNSLIPEDTAVYYCAARYVQVVRKFGYWGQGTQVTVSS,high polyreactivity
9,QVQLVESGGGLVQAGGSLRLSCAASGRIFSLNVMGWYRPAPGKERELVATIRGRGTSTYYADSVKGRFTISRDNAKNTVYLQMNSLKPEDTAVYYCAARGHGAYGYWGQGTQVTVSS,low polyreactivity
10,QVQLVESGGGLVQAGGSLRLSCAASGRIFSLYAMGWYRQAPGKERELDAAITWSSGSTYYADSVKGRFTISRDNAKNTVYLQMNSLKPEDTAVYYCAARVFTLLGYSFEYWGQGTQVTVSS,low polyreactivity
11,QVQLVESGGGLVQAGGSLRLSCAASGRIFSNNAMGWYRQAPGKERELVAAISSSGSTYYADSVKGRFTISRDNAKNTVYLLMNSLKPEDTAVYYCAVVYGYPYLRGYVYGFNYWGQGTQVTVSS,low polyreactivity
12,QVQLVESGGGLVQAGGSLRLSCAASGRIFSPYAMGWYRQAPGKERELVAAINYSGSRTYYADSVTGRFTISRDNAKNTVYLQMNSLKPEDTAVYYCARPWAPSSRGNGYWGLGTQVTVSS,high polyreactivity
13,QVQLVESGGGLVQAGGSLRLSCAASGRIFSRNAMGWYRQAPGKERELVAAISRSGGSTYYADSVKGRFTISRDNAKNTVYLQMNSLKPEDTAVYYCNTRYRPVKGSGPRYDYWGQGTQVTVSS,low polyreactivity
14,QVQLVESGGGLVQAGGSLRLSCAASGRIFSRNAMGWYRQAPGKERELVAAITWRGGNTYYAHSVKGRFTISRDNAKNTVYLQMNSLKPEDTAVYYCAADYLRWAGRYFSWDYDYWGQGTQVTVSS,high polyreactivity
15,QVQLVESGGGLVQAGGSLRLSCAASGRIFSRSAMGWYRQAPGKERELVAAIRWSTGSTNYADSVKGRFTISRDNAKNTVYLQMNSLKPEDTAVYYCNARYYVRPYSPGYYYWGQGTQVTVSS,high polyreactivity
16,QVQLVESGGGLVQAGGSLRLSCAASGRIFSRYAMGWDRQAPGKERELVAAINNGGSTYYADSVKGRFTISRDNAKNTVYLQMNSLKPEDTAVYYCAKLWWSNFKPVEYWGQGTQVTVSS,low polyreactivity
17,QVQLVESGGGLVQAGGSLRLSCAASGRIFSRYAMGWYRQAPGKERELVAAIASSGTTTYYADSVKGRFTISRDIAKNTVYLQMNSLKAEDTAVYYCATSAVRHIYWGQGTQVTVSS,high polyreactivity
18,QVQLVESGGGLVQAGGSLRLSCAASGRIFSRYAMGWYRQAPGKERELVAAIRSNGGRTYYADSVKGRFTISRDNAKNTVYLQMNSLKPEDTAVYYCAAAGGGKVSYRDYDYWGQGTQVTVSS,high polyreactivity
19,QVQLVESGGGLVQAGGSLRLSCAASGRIFSRYAMGWYRQAPGKERELVASIRITGSTYYADSVKGRFTISRDNAKTTVYLQMNSLKPEDTAVYYCAAYQYRLGNIRLNYWGQGTQVTVSS,high polyreactivity
20,QVQLVESGGGLVQAGGSLRLSCAASGRIFSRYAMGWYRQAPGKERELVATISSGGGTYYADSVKGRFTISRDTAKNTVYLQMNSLKPEDTAVYYCAAASYSGHGRYDDWGQGTQVSVSS,high polyreactivity
21,QVQLVESGGGLVQAGGSLRLSCAASGRIFSRYAMGWYRQAPGKERELVAVISRSGADTYYADSVKGRFTISRDNAKNTVYLQMNSLKPEDTAVYYCNAYSARRPHPMGYDYWGQGTQVTVSS,high polyreactivity
